Data as given in PMC2943613 (Nucleic Acids Research, 2010).

Biological target: the molecule itself
Experiment: SEC

B1: Thermus thermophilus exonuclease I (TTHB178) (enzyme, Thermus thermophilus HB8, UniProt Q53VZ1 1-296, looked up)
chain: MAFGVSHPVALDLEATSTDPSEAEVLEVAAVDGEGRVFHRYLATQRPLPPDHEVFQLTGIPYEEYEAKKVAPKEALEELLAFLGGRPLLGHNLLRYDLPLLQRHLEEAGLPRWQGEALDTLRLAHLLFPTPPGGLEGYRLGDLYAFLLGRPLEGAHRALNDAQATLAVFHRLLDRGRRALAQHPGLVRAWRELGLPEGHLFPEDEGLIKDLLAREADVEAFFVEKEGRPFPAPTDLGPDLLPKPRPAQRIKEFVQVAHGVAGQGLVGRERPLHEVLERGLRLAVGEAEEGAVEKEG
stoichiometry N: 2
